# Experimental data from patent CN115975019A (INST PATHOGEN BIOLOGY CAMS, dated 2023).
# Target: SARS-CoV-2 刺突RBD蛋白 (Sinobiological) (SARS-CoV-2, UniProt P0DTC2 319-541)
Binder,EC50,IC50
"A70抗体 (antibody, V domains shown, also called 抗体A70) VH: QITLKESGPTLVKPTQTLTLTCTFSGFSLDTPGVAIGWIRQPPGRALEWLGLIYWDGDERYNPSLTSRVTLTKDTSKNQVVLTMTNVDSVDTGTYFCGHKTIPTIFGVWGQGAPVTVSS VL: QSALTQPASVSGSPGQSITISCAATSGDFGVFNYVSWYQQHPGKAPKLIIFEVSSRPSGVSNRFSGSKSGNTASLTVSGLQAEDEAVYHCSSYSTSSVVFGGGTKLTVL",0.0511 µg/mL,0.515 µg/mL
"A46抗体 (antibody, V domains shown, also called 抗体A46) VH: EVQLLESGGGLIQPGGSLRLSCAVSEFIVSRNYMSWVRQAPGKGLEWVSVLYPGGSTFYADSVKGRFTISRDESTNTLFLQMNTLRVEDTAVYYCARDFGDFYFDFWGQGTLVTVSS VL: EIVLTQSPGTLSLSPGQRAALSCRASQSVSTYLAWYQQKPGQAPRLLIHDASSRASGVPDRFSGTGSGTDFTLTITRLEPEDFAVYYCQQYGTSPRTFGQGTKLEIK",0.0355 µg/mL,0.703 µg/mL
